According to patent US20220235138A1, “CAR-T CELLS TARGETING IL-1RAP AND THEIR USE IN ACUTE MYELOID LEUKEMIA (AML)” (ETABLISSEMENT FRANCAIS DU SANG, priority 2019, published 2022):

B1: mouse anti-hIL-1RAP monoclonal antibody, clone #E3C3 (antibody, V domains shown)
VH: QVQLQQPGAELMMPGASVKVSCEASGYTFTDSWMHWVKQRPGQGLEWIGAIDPSDSYTTYNQKFTGKATLSVDESSNTAYMQLSSLTSEDSAVYYCARYYSGSNYISPFPYWGQGTLVTVSA
VL: DIVMTQSHKFMSTSVGDRVTITCKASLDVSTAVAWYQQKPGQSPKLLIYSASYRYTGVPDRFTGSGSGTDFTFTISSVQAEDLAVYYCQQHYSPPFTFGSGTNLEIK
B2: IL-1RAP CAR (scFv of #E3C3 with CD28-4.1BB-CD3z signaling chain) expressed at the surface of transduced CEM or primary T cells (protein, not shown: small tags and cut ends)
scFv: QVQLQQPGAELMMPGASVKVSCEASGYTFTDSWMHWVKQRPGQGLEWIGAIDPSDSYTTYNQKFTGKATLSVDESSNTAYMQLSSLTSEDSAVYYCARYYSGSNYISPFPYWGQGTLVTVSAGGSGGGGSGGGGSVDMESQIQVFVFVFLWLSGVDGDIVMTQSHKFMSTSVGDRVTITCKASLDVSTAVAWYQQKPGQSPKLLIYSASYRYTGVPDRFTGSGSGTDFTFTISSVQAEDLAVYYCQQHYSPPFTFGSGTNLEIK

How the values were obtained:
[1] = target: IL-1RAP expressed at the cell surface of human cells (human), Q9NPH3; experiment: flow cytometry on monocytes of healthy donors' peripheral blood (2/5) and bone marrow (3/5); RFI against isotype; conditions: remark: other sources report otherwise
[2] = target: recombinant IL-1RAP biotinylated protein (UniProt Q9NPH3); experiment: flow cytometry, serial dilution of biotinylated IL-1RAP on CAR-transduced CEM cells, anti-biotin antibody; single experiment
[3] = target: recombinant IL-1RAP biotinylated protein (UniProt Q9NPH3); experiment: flow cytometry, serial dilution of biotinylated IL-1RAP on CAR-transduced primary T cells, anti-biotin antibody; single experiment
[4] = target: recombinant IL-1RAP biotinylated protein (UniProt Q9NPH3); experiment: flow cytometry, biotinylated IL-1RAP (0.15 ng) on CAR-transduced primary T cells, anti-biotin antibody
[5] = target: recombinant IL-1RAP biotinylated protein (UniProt Q9NPH3); experiment: flow cytometry, biotinylated IL-1RAP (1.25 ng) on CAR-transduced CEM cells, anti-biotin antibody

Sequence of recombinant IL-1RAP biotinylated protein (Q9NPH3 21-359 limits assumed): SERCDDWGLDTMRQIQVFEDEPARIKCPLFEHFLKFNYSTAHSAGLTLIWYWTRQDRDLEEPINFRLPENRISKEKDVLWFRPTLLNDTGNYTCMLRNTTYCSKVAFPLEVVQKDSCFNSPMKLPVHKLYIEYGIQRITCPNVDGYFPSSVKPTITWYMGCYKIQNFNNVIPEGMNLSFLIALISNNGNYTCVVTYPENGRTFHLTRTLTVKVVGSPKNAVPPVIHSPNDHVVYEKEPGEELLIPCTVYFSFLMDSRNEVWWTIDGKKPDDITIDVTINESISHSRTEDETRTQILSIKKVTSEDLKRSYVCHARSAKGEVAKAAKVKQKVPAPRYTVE
Sequence of IL-1RAP expressed at the cell surface of human cells (human), Q9NPH3 (Q9NPH3 21-570): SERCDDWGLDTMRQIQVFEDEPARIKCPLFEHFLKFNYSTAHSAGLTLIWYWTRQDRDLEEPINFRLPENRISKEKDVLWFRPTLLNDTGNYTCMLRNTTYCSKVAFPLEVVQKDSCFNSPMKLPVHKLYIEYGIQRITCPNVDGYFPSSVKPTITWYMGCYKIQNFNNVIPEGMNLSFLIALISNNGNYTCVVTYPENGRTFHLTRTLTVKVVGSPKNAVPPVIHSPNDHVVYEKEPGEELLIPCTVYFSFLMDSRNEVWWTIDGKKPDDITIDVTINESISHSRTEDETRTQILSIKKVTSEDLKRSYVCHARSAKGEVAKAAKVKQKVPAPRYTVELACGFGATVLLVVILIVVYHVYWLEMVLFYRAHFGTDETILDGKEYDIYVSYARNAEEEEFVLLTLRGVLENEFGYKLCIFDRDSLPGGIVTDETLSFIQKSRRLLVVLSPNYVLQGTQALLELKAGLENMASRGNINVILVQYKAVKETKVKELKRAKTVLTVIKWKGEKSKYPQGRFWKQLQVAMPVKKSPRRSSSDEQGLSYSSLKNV

Binder | RFI [1] | amount of recombinant protein required for recruiting maximum of cells [2] | amount of recombinant protein required for recruiting maximum of cells [3] | maximum percentage of Biotin+/CD19+ cells [4] | maximum percentage of Biotin+/CD19+ cells [5]
B1 | < 2 |  |  |  | 
B2 |  | 1.25 ng | 0.15 ng | 68.5% | 85.8%
